Test results: patent US20200399391A1 (Sanofi, published 2020)
Substitutions are numbered along the chain they refer to.

T1: FcγRIIb expressed on HEK cells (UniProt P31994 43-310, limits assumed)
T1 construct: whole, on cells; also called HEK293T-FcγRIIb
T1 sequence (looked up): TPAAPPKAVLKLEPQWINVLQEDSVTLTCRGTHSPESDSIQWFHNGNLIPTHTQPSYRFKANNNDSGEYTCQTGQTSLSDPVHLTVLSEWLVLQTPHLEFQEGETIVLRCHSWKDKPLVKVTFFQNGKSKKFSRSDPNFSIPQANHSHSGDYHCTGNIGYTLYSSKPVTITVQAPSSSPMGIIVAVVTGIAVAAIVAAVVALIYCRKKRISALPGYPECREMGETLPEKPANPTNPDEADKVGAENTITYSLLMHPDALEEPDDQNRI

T2: FcγRIIa 131H expressed on HEK cells (human, UniProt P12318 34-317)
T2 sequence: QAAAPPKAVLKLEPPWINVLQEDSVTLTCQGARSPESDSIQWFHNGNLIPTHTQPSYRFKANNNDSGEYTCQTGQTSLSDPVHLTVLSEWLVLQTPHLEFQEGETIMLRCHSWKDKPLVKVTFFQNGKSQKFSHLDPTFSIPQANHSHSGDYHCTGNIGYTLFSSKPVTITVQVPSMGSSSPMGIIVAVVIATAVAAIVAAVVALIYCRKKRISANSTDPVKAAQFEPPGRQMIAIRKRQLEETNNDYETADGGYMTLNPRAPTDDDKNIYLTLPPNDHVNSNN

T3: FcγRIIa extracellular domain with H131, histag (Biorbyt, batch ORB138408) (human, UniProt P12318 34-217)
T3 construct: Bought protein; also called FcγRIIa H131; not shown: histag
T3 sequence: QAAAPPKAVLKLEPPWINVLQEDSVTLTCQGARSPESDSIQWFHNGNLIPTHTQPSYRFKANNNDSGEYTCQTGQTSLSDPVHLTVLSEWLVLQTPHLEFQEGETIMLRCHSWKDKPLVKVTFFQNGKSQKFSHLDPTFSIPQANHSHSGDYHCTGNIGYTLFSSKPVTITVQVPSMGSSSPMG

B1: mAb 1 (antibody, human IgG1, kappa)
heavy: not shown
light: DIVMTQSHLSMSTSLGDPVSITCKASQDVSTVVAWYQQKPGQSPRRLIYSASYRYIGVPDRFTGSGAGTDFTFTISSVQAEDLAVYYCQQHYSPPYTFGGGTKLEIKRTVAAPSVFIFPPSDEQLKSGTASVVCLLNNFYPREAKVQWKVDNALQSGNSQESVTEQDSKDSTYSLSSTLTLSKADYEKHKVYACEVTHQGLSSPVTKSFNRGEC
notes: also called HEAVY CHAIN 1 / LIGHT CHAIN 1
B2: mAb 3 (antibody, human IgG1, kappa)
heavy: QVQLVQSGAEVAKPGTSVKLSCKASGYTFTDYWMQWVKQRPGQGLEWIGTIYPGDGDTGYAQKFQGKATLTADKSSKTVYMHLSSLASEDSAVYYCARGDYYGSNSLDYWGQGTSVTVSSASTKGPSVFPLAPSSKSTSGGTAALGCLVKDYFPEPVTVSWNSGALTSGVHTFPAVLQSSGLYSLSSVVTVPSSSLGTQTYICNVNHKPSNTKVDKKVEPKSCDKTHTCPPCPAPELLAGPDVFLFPPKPKDTLMISRTPEVTCVVVDVSHEDPEVKFNWYVDGVEVHNAKTKPREEQYNSTYRVVSVLTVLHQDWLNGKEYKCKVSNKALPAPEEKTISKAKGQPREPQVYTLPPSRDELTKNQVSLTCLVKGFYPSDIAVEWESNGQPENNYKTTPPVLDSDGSFFLYSKLTVDKSRWQQGNVFSCSVMHEALHNHYTQKSLSLSPG
light: B1 light
notes: also called HEAVY CHAIN 3 / LIGHT CHAIN 1
B3: mAb 2 (antibody, human IgG1, kappa)
heavy: not shown
light: B1 light
notes: also called HEAVY CHAIN 2 / LIGHT CHAIN 1
B4: mAb 4 (antibody, human IgG1, kappa)
heavy: B2 heavy with A333L
light: B1 light
notes: also called HEAVY CHAIN 4 / LIGHT CHAIN 1
B5: mAb 5 (antibody, human IgG1, kappa, V domains shown)
VH: QVQLVQSGAEVAKPGASVKVSCKASGYTFTDYWMQWVRQAPGQGLEWIGTIYPGDGDTSYAQKFQGRVTMTADTSTSTVYMELSSLRSEDTAVYYCARGDYYGSNSLDYWGQGTLVTVSS
VL: DIVMTQSPDSLAVSLGERATINCKSSQDVSTVLAWYQQKPGQSPRRLIYSASYRYIGVPDRFSGSGSGTDFTLTISSLQAEDVAVYYCQQHYSPPYTFGGGTKLEIKR
notes: Humanized heavy and light chains with engineered Fc; also called anti-CD38 mAb 5; HEAVY CHAIN 5 / LIGHT CHAIN 2
B6: mAb 8 (antibody, human IgG1, kappa, V domains shown)
VH: B5 VH with R38K, A40R, S59G, T74K
VL: B5 VL with L33V, L73F
notes: Humanized heavy and light chains with engineered Fc; also called anti-CD38 mAb 8; HEAVY CHAIN 6 / LIGHT CHAIN 3
B7: mAb 6 (antibody, human IgG1, kappa, V domains shown)
VH: B5 VH
VL: B5 VL with L33V, L73F
notes: Humanized heavy and light chains with engineered Fc; also called anti-CD38 mAb 6; HEAVY CHAIN 5 / LIGHT CHAIN 3
B8: mAb 7 (antibody, human IgG1, kappa, V domains shown)
VH: B5 VH with R38K, A40R, S59G, T74K
VL: B5 VL
notes: Humanized heavy and light chains with engineered Fc; also called anti-CD38 mAb 7; HEAVY CHAIN 6 / LIGHT CHAIN 2

How the values were obtained:
[1] = target: T4, FcγRIIIa 158V expressed on cells (human, UniProt P08637 17-254); assay: flow cytometry on HEK293T cells expressing the receptor
T4 construct: also called HEK293T-FcγRIIIa-158V; FcγRIIIa (CD16a) 158V

[2] = target: T4, FcγRIIIa 158V expressed on cells; assay: cell-based or functional assay
[3] = target: T5, FcγRI expressed on HEK cells (UniProt P12314 16-374, limits assumed); assay: flow cytometry on HEK293T cells expressing the receptor
T5 construct: whole, on cells; also called HEK293T-FcγRI

[4] = target: T1, FcγRIIb expressed on HEK cells; assay: as above
[5] = target: T4, FcγRIIIa 158V expressed on cells; assay: flow cytometry on HEK293T cells expressing the receptor, FITC anti-human IgG; mean apparent Kd
[6] = target: T5, FcγRI expressed on HEK cells; assay: flow cytometry on HEK293T cells expressing the receptor, FITC anti-human IgG; mean Kd
[7] = target: T1, FcγRIIb expressed on HEK cells; assay: as above
[8] = target: T2, FcγRIIa 131H expressed on HEK cells; assay: as above
[9] = target: T6, FcγRIIIa (CD16a) extracellular domain with V158, C-terminal histag (human, UniProt P08637 17-208); assay: SPR (BIAcore 2000), FcγRIIIa-histag captured on anti-His IgG, mAb 8-256 nM, two-state fit
T6 construct: also called FcγRIIIa 158V; FcγRIIIa-histag; not shown: C-terminal histag

[10] = target: T3, FcγRIIa extracellular domain with H131, …; assay: AlphaScreen competition (relative IC50): untagged mAb displaces biotinylated anti-CD38 native IgG1 from FcγRIIa-histag
[11] = target: T2, FcγRIIa 131H expressed on HEK cells; assay: flow cytometry on HEK293T cells expressing the receptor
[12] = target: T4, FcγRIIIa 158V expressed on cells; assay: cell-based or functional assay; remark: listed apart in the source
[13] = target: T4, FcγRIIIa 158V expressed on cells; assay: cell-based or functional assay; remark: listed apart in the source
[14] = target: T6, FcγRIIIa (CD16a) extracellular domain …; assay: SPR, against mAb 1
[15] = target: T1, FcγRIIb expressed on HEK cells; assay: flow cytometry on HEK293T cells expressing the receptor; the text calls it fold lower affinity
[16] = target: T6, FcγRIIIa (CD16a) extracellular domain …; assay: SPR, another experiment
[17] = target: T3, FcγRIIa extracellular domain with H131, …; assay: AlphaScreen competition, against mAb 1
human CD38 [18] = target: T7, human CD38 (human, UniProt P28907 43-300, limits assumed); assay: SPR (Biacore), mAb captured on anti-Fc CM5 chip, huCD38 injected; n = 3
T7 construct: Soluble analyte in SPR; the construct (limits, tags) is not described; also called huCD38

human CD38 [19] = target: T7, human CD38; assay: SPR (Biacore), mAb captured on anti-Fc chip, after thermal stress of the mAb (14 days at 40 C); n = 3

Binder	Fold difference in affinity versus mAb 1 [1] [fold]	ADCC of RPMI-8226 cells, EC50 (calcein release) [2] [ng/mL]	difference in affinity versus mAb 1 [3] [fold]	Kd [5] [µM]	Kd [6] [µM]	Kd [7] [µM]	Kd [8] [µM]	Kd [9] [µM]	IC50 [10] [µM]	difference in affinity versus mAb 1 [11] [fold]	ADCC of KMS-12BM cells, EC50 (calcein release) [12] [ng/mL]	ADCC of MOLP-8 cells, EC50 (calcein release) [13] [ng/mL]	fold higher affinity than mAb 1 [14] [fold]	difference in affinity versus mAb 1 [15] [fold]	Kd (human CD38 [18]) [µM]	koff (human CD38 [18]) [s⁻¹]	kon (human CD38 [18]) [M⁻¹ s⁻¹]	Kd (human CD38 [19]) [µM]	koff (human CD38 [19]) [s⁻¹]	kon (human CD38 [19]) [M⁻¹ s⁻¹]	also measured
B1	1	2.45	1	0.165	0.0242	1.3	1.18	0.425	0.268	1	41	3.3	–	–	–	–	–	–	–	–	difference in affinity versus mAb 1 [4]: 1 fold
B2	5.2	0.09	1.6	0.032	0.0147	0.222	0.222	0.05	0.015	5.3	0.6	0.14	9	3.3	–	–	–	–	–	–	Kd [16]: 0.075 µM; fold higher affinity compared to mAb 1 [17]: > 18 fold
B3	9.4	0.09	1.8	0.0176	0.0135	–	0.84	0.047	0.119	1.4	0.65	0.1	9	3.9	–	–	–	–	–	–	–
B4	5.9	0.09	1.5	0.0281	0.0159	0.544	0.544	0.047	0.058	2.2	0.45	0.12	9	1.8	–	–	–	–	–	–	–
B5	–	–	–	–	–	–	–	–	–	–	–	–	–	–	0.000699	0.00188	2.78e+06	0.000828	0.00236	2.95e+06	–
B6	–	–	–	–	–	–	–	–	–	–	–	–	–	–	0.000191	0.00065	3.51e+06	0.000198	0.000663	3.53e+06	–
B7	–	–	–	–	–	–	–	–	–	–	–	–	–	–	0.000385	~0.00119	3.1e+06	0.000346	0.00128	3.86e+06	–
B8	–	–	–	–	–	–	–	–	–	–	–	–	–	–	0.000415	0.0013	3.18e+06	0.000394	0.00133	3.39e+06	–
